Measurements reported in patent US20240124595A1 (UNIVERSITY OF SASKATCHEWAN, published 2024).

Experiments:
[1] = biological target: T1, recombinant canine IGF2R domains 11-13 Fc fusion protein (canine; human); experiment: competitive Fab-phage ELISA, same protein in solution as competitor
T1 construct: Soluble Fc fusion expressed in Expi293F; also called canine IGF2R fragment; not shown: human IgG1 Fc from a modified pFUSE-hIgG1-Fc2 vector (Invivogen)
T1 chain: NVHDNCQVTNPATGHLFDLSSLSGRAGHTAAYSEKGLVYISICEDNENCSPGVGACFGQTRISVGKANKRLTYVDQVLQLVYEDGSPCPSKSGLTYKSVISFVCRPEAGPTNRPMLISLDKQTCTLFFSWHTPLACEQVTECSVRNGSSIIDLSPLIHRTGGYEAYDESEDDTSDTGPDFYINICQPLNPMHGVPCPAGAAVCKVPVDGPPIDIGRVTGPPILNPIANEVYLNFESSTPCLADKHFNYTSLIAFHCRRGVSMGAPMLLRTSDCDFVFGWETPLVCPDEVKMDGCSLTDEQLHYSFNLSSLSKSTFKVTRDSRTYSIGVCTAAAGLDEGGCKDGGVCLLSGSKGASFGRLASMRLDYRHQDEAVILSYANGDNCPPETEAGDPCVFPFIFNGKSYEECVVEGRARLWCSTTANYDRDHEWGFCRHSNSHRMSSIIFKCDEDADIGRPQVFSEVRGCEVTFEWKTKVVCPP

[2] = biological target: T2, recombinant murine IGF2R domains 11-13 Fc fusion protein (murine; human, UniProt Q07113 1504-1982); experiment: as above
T2 construct: Soluble Fc fusion expressed in Expi293F; also called murine IGF2R fragment; not shown: human IgG1 Fc from a modified pFUSE-hIgG1-Fc2 vector (Invivogen)

[3] = biological target: T3, recombinant human IGF2R domains 11-13 Fc fusion protein (human, UniProt P11717 1511-1989); experiment: phage ELISA on recombinant IGF2R Fc fusion
T3 construct: Soluble Fc fusion expressed in Expi293F; also called human IGF2R fragment; not shown: human IgG1 Fc from a modified pFUSE-hIgG1-Fc2 vector (Invivogen)

[4] = biological target: T4, human IGF2R on human osteosarcoma cells (human, UniProt P11717 41-2491); experiment: flow cytometry on human OS cell lines
T4 construct: whole, on cells; Endogenous receptor on tumour cell lines, not transfected cells; also called OS-33
T4 sequence (P11717 41-2491): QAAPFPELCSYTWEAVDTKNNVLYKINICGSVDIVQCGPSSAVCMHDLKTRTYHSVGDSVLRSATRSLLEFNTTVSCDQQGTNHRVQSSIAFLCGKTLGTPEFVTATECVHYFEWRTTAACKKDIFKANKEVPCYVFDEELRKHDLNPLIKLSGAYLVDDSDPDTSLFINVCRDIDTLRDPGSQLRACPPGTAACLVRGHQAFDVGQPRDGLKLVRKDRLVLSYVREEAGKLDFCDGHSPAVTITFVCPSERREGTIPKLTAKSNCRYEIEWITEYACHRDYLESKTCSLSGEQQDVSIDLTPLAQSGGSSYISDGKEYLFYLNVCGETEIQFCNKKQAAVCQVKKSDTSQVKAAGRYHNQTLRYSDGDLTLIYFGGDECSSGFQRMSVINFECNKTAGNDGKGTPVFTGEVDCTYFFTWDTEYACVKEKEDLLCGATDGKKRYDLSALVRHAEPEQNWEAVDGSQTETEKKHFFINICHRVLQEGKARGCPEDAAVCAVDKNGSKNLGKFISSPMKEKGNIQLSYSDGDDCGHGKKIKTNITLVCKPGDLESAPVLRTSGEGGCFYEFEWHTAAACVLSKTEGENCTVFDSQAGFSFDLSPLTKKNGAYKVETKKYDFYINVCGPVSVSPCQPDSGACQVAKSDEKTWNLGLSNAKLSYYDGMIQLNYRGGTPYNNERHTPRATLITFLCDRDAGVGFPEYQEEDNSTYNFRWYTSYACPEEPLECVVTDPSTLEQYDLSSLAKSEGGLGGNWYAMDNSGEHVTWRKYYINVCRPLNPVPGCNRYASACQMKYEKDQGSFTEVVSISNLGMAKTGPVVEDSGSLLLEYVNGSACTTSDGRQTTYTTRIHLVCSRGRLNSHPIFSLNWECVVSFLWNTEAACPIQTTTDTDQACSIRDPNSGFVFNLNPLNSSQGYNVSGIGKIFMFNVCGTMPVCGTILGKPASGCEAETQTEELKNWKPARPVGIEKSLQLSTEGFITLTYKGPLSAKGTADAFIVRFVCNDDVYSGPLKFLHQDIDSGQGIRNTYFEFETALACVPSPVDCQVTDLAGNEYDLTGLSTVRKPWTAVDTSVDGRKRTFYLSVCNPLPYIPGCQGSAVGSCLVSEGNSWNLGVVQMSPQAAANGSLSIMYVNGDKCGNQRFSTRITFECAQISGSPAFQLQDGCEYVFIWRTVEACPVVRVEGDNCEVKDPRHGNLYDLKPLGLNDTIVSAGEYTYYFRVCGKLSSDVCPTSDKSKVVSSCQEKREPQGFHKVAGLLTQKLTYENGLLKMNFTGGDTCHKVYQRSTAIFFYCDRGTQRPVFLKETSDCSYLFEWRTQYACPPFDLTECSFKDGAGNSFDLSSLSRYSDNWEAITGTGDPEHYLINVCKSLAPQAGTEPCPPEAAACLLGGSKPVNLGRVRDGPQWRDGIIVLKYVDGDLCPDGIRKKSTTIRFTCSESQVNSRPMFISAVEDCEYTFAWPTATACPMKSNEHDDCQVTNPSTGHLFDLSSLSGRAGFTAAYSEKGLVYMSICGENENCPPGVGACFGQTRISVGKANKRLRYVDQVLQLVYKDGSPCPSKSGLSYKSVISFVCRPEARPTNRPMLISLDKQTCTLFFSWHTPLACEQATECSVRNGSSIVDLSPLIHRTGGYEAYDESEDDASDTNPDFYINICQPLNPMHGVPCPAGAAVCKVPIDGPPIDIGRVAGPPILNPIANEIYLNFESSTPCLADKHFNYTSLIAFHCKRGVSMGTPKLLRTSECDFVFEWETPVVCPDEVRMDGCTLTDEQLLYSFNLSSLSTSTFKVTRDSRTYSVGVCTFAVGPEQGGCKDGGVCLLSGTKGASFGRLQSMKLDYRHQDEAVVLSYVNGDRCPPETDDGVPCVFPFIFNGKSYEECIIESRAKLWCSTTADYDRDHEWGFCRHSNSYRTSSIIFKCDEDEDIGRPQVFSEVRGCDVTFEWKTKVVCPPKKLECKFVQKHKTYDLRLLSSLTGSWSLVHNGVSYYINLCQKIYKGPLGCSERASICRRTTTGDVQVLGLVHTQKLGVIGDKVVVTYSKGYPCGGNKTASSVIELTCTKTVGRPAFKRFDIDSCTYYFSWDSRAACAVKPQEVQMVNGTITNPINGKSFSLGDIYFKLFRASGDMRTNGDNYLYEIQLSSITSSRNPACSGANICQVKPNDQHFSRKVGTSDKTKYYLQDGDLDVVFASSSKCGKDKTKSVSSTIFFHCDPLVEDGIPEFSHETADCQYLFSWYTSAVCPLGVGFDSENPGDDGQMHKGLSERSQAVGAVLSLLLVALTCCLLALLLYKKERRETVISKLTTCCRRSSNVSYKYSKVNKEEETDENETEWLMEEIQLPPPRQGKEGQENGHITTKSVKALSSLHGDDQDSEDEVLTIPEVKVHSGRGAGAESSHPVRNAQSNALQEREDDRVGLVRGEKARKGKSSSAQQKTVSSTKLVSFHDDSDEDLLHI

[5] = biological target: T1, recombinant canine IGF2R domains 11-13 …; experiment: ELISA on coated recombinant IGF2R
[6] = biological target: T2, recombinant murine IGF2R domains 11-13 …; experiment: ELISA on coated recombinant IGF2R
[7] = biological target: T3, recombinant human IGF2R domains 11-13 …; experiment: ELISA on coated recombinant IGF2R
[8] = biological target: T3, recombinant human IGF2R domains 11-13 …; experiment: competitive Fab-phage ELISA, same protein in solution as competitor
[9] = biological target: T5, recombinant murine IGF2R domains 11-13 Fc fusion protein (UniProt Q07113 1504-1982); experiment: ELISA; printed as "IC 50 or EC 50"
T5 chain: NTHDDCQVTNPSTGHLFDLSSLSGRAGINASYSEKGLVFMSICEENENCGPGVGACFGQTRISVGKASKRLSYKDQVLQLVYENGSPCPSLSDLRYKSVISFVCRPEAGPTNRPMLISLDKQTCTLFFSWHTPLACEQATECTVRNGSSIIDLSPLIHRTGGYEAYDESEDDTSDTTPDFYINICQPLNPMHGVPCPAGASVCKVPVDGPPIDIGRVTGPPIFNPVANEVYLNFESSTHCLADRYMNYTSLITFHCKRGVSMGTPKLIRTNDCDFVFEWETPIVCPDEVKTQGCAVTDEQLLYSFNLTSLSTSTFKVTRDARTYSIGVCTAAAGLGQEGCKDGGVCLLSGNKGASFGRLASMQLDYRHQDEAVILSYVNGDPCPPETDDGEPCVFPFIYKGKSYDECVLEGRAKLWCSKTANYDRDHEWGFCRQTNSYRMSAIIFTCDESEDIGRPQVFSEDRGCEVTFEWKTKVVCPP

[10] = biological target: T6, recombinant canine IGF2R domains 11-13 Fc fusion protein; experiment: ELISA; printed as "IC 50 or EC 50"
T6 chain: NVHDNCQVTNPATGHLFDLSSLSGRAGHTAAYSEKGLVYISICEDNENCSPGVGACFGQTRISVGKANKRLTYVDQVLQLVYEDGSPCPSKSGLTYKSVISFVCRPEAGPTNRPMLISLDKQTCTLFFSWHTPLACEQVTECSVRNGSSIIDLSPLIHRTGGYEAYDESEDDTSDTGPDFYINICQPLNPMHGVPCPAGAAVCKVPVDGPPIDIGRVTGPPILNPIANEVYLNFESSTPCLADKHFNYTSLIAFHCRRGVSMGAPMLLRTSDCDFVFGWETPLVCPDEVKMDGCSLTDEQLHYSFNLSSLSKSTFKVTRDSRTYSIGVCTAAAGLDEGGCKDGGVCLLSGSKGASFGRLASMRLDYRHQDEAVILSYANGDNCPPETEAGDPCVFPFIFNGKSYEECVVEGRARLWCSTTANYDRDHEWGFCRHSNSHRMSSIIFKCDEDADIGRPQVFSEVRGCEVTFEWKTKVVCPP

[11] = biological target: T7, recombinant human IGF2R domains 11-13 Fc fusion protein (UniProt P11717 1511-1989); experiment: ELISA; printed as "IC 50 or EC 50"
T7 chain: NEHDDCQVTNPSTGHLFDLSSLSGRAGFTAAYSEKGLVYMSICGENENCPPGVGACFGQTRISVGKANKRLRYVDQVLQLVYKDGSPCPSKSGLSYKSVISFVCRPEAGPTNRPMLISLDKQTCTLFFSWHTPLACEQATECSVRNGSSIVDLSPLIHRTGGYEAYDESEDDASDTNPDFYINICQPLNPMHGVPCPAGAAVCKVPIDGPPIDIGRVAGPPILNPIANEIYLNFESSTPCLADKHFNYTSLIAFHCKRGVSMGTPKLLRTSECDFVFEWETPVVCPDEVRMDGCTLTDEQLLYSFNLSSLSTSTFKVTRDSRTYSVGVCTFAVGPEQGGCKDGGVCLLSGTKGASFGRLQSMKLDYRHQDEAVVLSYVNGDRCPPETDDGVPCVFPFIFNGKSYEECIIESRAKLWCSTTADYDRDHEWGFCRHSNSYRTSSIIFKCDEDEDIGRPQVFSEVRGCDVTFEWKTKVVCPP

Binder	binding result [1]	binding result [2]	binding result [3]	binding result [4]	binding result [5]	binding result [6]	binding result [7]	binding result [8]	EC50 [9]	EC50 [10]	EC50 [11]
IGF2R-Fab-1 (Fab, V domains shown, From the naive library (VH3-30 / VK1); also called Fab-phage) VH: EVQLVESGGGVVQPGGSLRLSCAASGFTFSSYAMHWVRQAPGKGLEWVAVISYDGSNKYYADSVKGRFTISRDNSKNTLYLQMNSLRAEDTAVYYCARDDRFFGGMDVWGQGTTVTVSS VL: AIRMTQSPSSLSASVGDRVTITCRASQDISSWLAWYQQKPDKAPKSLIYAASSLEDGVPSRFSGSGSGTDFTLTISSLQAEDFATYYCQQYNTYPWTFGQGTKVEIK	binds	binds	binds								
IF1 (antibody, human IgG1, kappa, V domains shown, Full-length human IgG1 kappa expressed in Expi293F cells; also called IGF2R-IgG#1; full-size human IgG from Fab1) VH: EVQLVESGGGVVQPGGSLRLSCAASGFTFSSYAMHWVRQAPGKGLEWVAVISYDGSNKYYADSVKGRFTISRDNSKNTLYLQMNSLRAEDTAVYYCARDDRFFGGMDVWGQGTTVTVSS VL: AIRMTQSPSSLSASVGDRVTITCRASQDISSWLAWYQQKPDKAPKSLIYAASSLEDGVPSRFSGSGSGTDFTLTISSLQAEDFATYYCQQYNTYPWTFGQGTKVEIKR				binds	binds	binds	binds				
IGF2R-Fab-2 (Fab, V domains shown, From the synthetic 4D5-8 (trastuzumab framework) library; also called Fab-phage) VH: EVQLVESGGGLVQPGGSLRLSCAASGFNIKYTYIHWVRQAPGKGLEWVALIDPHYGFTRYADSVKGRFTISADTSKNTAYLQMNSLRAEDTAVYYCSRWYYDHAMDYWGQGTLVTVSS VL: DIQMTQSPSSLSASVGDRVTITCRASQLVDTAVAWYQQKPGKAPKLLIYFASYLYSGVPSRFSGSRSGTDFTLTISSLQPEDFATYYCQQVVYYPPTFGQGTKVEIK	binds	binds						binds			
IF3 (antibody, human IgG1, kappa, V domains shown, Full-length human IgG1 kappa expressed in Expi293F cells; also called 1F3; IGF2R-IgG#3) VH: EVQLVESGGGLVQPGGSLRLSCAASGFNIKDTYIHWVRQAPGKGLEWVAFIDPIFGDTRYADSVKGRFTISADTSKNTAYLQMNSLRAEDTAVYYCSRWGGDGFYAMDYWGQGTLVTVSS VL: DIQMTQSPSSLSASVGDRVTITCRASQDVNTAVAWYQQKPGKAPKLLIYSASFLYSGVPSRFSGSRSGTDFTLTISSLQPEDFATYYCQQAYFFHHFPPTFGQGTKVEIKR				binds	binds	binds	binds		3.06 nM	3.22 nM	1.14 nM
IGF2R-Fab-3 (Fab, V domains shown, From the synthetic 4D5-8 (trastuzumab framework) library; also called Fab-phage) VH: EVQLVESGGGLVQPGGSLRLSCAASGFNIKDTYIHWVRQAPGKGLEWVAFIDPIFGDTRYADSVKGRFTISADTSKNTAYLQMNSLRAEDTAVYYCSRWGGDGFYAMDYWGQGTLVTVSS VL: DIQMTQSPSSLSASVGDRVTITCRASQDVNTAVAWYQQKPGKAPKLLIYSASFLYSGVPSRFSGSRSGTDFTLTISSLQPEDFATYYCQQAYFFHHFPPTFGQGTKVEIK	binds	binds						binds			
